Read-outs that look alike come from different tables or passages of the source. Non-standard residues stand in square brackets, D forms with d. Primed or numbered codes have the meaning given here. No end group written: not given here. *: point of attachment. 5FAM = O=C1OC2(c3ccc(O)cc3Oc3cc(O)ccc32)c2ccc(C(=O)*)cc21; CPQ2 = quencher on the Lys side chain; PEG2′ = polyethylene glycol linker
Assays:
[1] = target: T1, MMP9 (Homo sapiens, UniProt P14780); assay: In vitro recombinant protease assay: cleavage of nanoparticle-presented FRET substrate by MMP9; format: biochemical; details: 6 μM substrate
T1 construct: purchased Enzo Life Sciences
T1 sequence (P14780 94-707): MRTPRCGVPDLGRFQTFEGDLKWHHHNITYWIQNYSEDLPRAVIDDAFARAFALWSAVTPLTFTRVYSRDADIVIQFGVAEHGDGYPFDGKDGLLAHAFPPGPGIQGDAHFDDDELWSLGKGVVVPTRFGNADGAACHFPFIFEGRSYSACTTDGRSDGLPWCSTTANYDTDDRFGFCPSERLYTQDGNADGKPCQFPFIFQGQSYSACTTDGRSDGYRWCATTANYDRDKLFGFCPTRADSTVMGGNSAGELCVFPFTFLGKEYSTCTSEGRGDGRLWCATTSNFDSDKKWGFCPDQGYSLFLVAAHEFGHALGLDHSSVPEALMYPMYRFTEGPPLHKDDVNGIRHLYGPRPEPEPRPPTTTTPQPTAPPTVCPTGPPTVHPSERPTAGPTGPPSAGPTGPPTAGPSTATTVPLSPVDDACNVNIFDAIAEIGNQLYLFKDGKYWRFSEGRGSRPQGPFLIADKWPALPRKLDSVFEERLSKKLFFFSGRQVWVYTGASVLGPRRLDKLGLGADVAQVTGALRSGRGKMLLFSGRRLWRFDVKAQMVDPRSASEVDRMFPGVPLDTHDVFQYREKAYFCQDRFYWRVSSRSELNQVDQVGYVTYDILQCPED
Method: In some embodiments, surface presentation of peptide substrates allows tuning of specificity between on- and off-target proteolytic cleavage rates of the substrate (e.g., MMP9 substrate). The cleavage kinetics of an MMP9 peptide substrate (PLGVRGK; SEQ ID NO: 15), flanked by a fluorescence resonance energy transfer (FRET) pair, at varying distances from the nanoparticle core (FIG. 3A) were tested. For this substrate, the rate of cleavage by MMP9 increased with increasing presentation distance (tether length) for all the substrate concentrations tested (0.5, 1.0, 2.0, 4.0 and 6.0 μM); as an example, cleavage velocity (V) increased from 0.24 to 0.96 nM s^−1 at 6 μM (FIG. 3B). Unexpectedly, this phenomenon was not generalizable across enzymes. For example, cleavage rates by the serine protease, thrombin, decreased with increasing presentation distance when the same substrate was tested (e.g., V at 6 μM of substrate decreased from 0.29 to 0.01 nM s^−1; FIG. 3C). Nor was it generalizable across substrates. […]
Nanoparticles coupled with intramolecularly quenched peptide substrates were reacted with recombinant proteases to identify cleavage velocities. […] (SpectroMax Gemini EM microplate reader). Michaelis-Menten constants were determined by assessing initial cleavage velocities at different substrate concentrations (Prism 5.0, GraphPad). […]

[2] = target: T2, thrombin (Homo sapiens, UniProt P00734); assay: In vitro recombinant protease assay: cleavage of nanoparticle-presented FRET substrate by thrombin; format: biochemical; details: for cleavage velocity (V) by thrombin: 6 μM substrate
T2 construct: purchased Haematologic Technologies
Method: In some embodiments, surface presentation of peptide substrates allows tuning of specificity between on- and off-target proteolytic cleavage rates of the substrate (e.g., MMP9 substrate). The cleavage kinetics of an MMP9 peptide substrate (PLGVRGK; SEQ ID NO: 15), flanked by a fluorescence resonance energy transfer (FRET) pair, at varying distances from the nanoparticle core (FIG. 3A) were tested. For this substrate, the rate of cleavage by MMP9 increased with increasing presentation distance (tether length) for all the substrate concentrations tested (0.5, 1.0, 2.0, 4.0 and 6.0 μM); as an example, cleavage velocity (V) increased from 0.24 to 0.96 nM s^−1 at 6 μM (FIG. 3B). Unexpectedly, this phenomenon was not generalizable across enzymes. For example, cleavage rates by the serine protease, thrombin, decreased with increasing presentation distance when the same substrate was tested (e.g., V at 6 μM of substrate decreased from 0.29 to 0.01 nM s^−1; FIG. 3C). Nor was it generalizable across substrates. […] The presentation of the MMP9 substrate on the ABNs described in this example exploited the increased on-target and decreased off-target protease cleavage that occurs for long tether lengths.
Nanoparticles coupled with intramolecularly quenched peptide substrates were reacted with recombinant proteases to identify cleavage velocities. NPs were mixed with 1% (w/v) BSA (Sigma) and incubated with recombinant proteases (MMP-9, Enzo Life Sciences; thrombin, Haematologic Technologies) in a final volume of 50 μl in enzyme-specific buffers (MMP9 buffer: 50 mM Tris, 150 mM NaCl, 5 mM CaCl2), 1 μM ZnCl2, pH 7.5; thrombin: PBS) in a 384-well plate for time-lapse fluorimetry to measure dequenching at 37° C. (SpectroMax Gemini EM microplate reader). Michaelis-Menten constants were determined by assessing initial cleavage velocities at different substrate concentrations (Prism 5.0, GraphPad). The final MMP-9 concentration was 100 nM and the final thrombin concentration was 7 nM.

[3] = target: mouse MMP9 (Mus musculus, UniProt P41245); assay: Cleavage of MMP9 substrate by mouse MMP9; format: biochemical
Chain of mouse MMP9 (P41245 108-730): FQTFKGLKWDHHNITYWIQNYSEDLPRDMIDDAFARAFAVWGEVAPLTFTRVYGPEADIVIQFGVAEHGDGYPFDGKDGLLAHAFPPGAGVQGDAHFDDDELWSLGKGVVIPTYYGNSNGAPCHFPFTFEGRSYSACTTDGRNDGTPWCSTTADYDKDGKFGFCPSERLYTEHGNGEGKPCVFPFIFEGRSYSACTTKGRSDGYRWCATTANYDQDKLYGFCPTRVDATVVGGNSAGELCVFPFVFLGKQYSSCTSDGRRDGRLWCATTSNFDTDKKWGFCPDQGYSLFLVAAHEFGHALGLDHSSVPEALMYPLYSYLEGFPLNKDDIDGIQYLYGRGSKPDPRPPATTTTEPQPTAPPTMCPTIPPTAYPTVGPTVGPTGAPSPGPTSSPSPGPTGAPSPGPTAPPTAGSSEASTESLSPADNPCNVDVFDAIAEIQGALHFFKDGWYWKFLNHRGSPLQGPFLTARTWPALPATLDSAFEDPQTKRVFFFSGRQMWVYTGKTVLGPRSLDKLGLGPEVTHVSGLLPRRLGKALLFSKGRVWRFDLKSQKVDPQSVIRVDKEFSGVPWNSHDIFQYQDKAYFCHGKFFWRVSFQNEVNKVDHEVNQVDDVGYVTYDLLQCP
Text: FIGS. 14A-14B show iRGD ABNz characterization.
Receptor expression on tumors varies by tumor type and patient. In this example, another ABN was produced using the tumor-penetrating ligand, iRGD (CRGDKGPDC; SEQ ID NO: 2). This peptide engages the same active-internalization pathway as LyP-1, but binds to αvβ3 or αvβ5 integrin heterodimers as its primary receptor, which are ectopically overexpressed in a large subset of cancers (FIG. 12A). The tumor-targeting peptides iRGD and LyP-1 were bound to ABNs and administered to an immunocompetent mouse model of colorectal liver metastasis (CLM), induced via an intrasplenic injection of p32-negative, integrin-positive and NRP-1-positive MC-26 cells (FIG. 12B-12C and FIGS. 13A-13C). MC-26 cells are derived from a mouse colorectal cancer line and secrete MMP9, which can be detected in the tumor nodules as well as in the tumor-adjacent liver, but not in non-tumor-bearing liver lobes (FIG. 12D). The stoichiometries for substrate conjugation on iRGD ABNs were similar to those used on the LyP-1 ABNs (FIG. 14A). […] This was consistent in the model of orthotopic ovarian cancer (FIG. 15D).

[4] = tested on: matrix-metalloprotease; assay: Cleavage of MMP9 substrate by OVCAR-8 conditioned media with and without MMP inhibitor; format: biochemical, human
[5] = tested on: OVCAR-8 tumor nodules; assay: Blood biomarker HE4 ELISA in orthotopic OVCAR-8 ovarian cancer model; format: in vivo, mouse
Method: The ability of ABNs to: (1) detect low-burden ovarian cancer and (2) outperform a clinical blood biomarker were tested. Detection by ABNs was compared to the blood biomarker HE4, as OVCAR-8 cells produce relatively high levels of this protein, on a par with four other human ovarian cancer cell lines (FIGS. 10B-10C). […] This threshold of sensitivity is critical, as clinically approved imaging modalities can typically only resolve individual tumor nodules greater than 5 mm in diameter. Additionally, it has been estimated that to decrease serous ovarian cancer mortality by 50% with an annual screen, a test would have to be sensitive to tumors of <5 mm. […] It was confirmed that the tumor nodule retrieval methodology described in this example accounted for greater than 80% of the tumor burden by measuring luminescence pre- and post-resection (FIGS. 11D-11G). The tumor burden remaining can be attributed to uncollected macroscopic and microscopic lesions.
To generate an orthotopic model of human ovarian cancer, three- to four-week-old female NCr nude mice were injected intraperitoneally with 2×10^6 OVCAR-8 cells expressing firefly luciferase. Tumor burden was measured via luminescence using an in vivo imaging system (IVIS, PerkinElmer). Each mouse was sacrificed and the tumors were retrieved from all organs in the peritoneal space. Tumors were collected on a glass slide and scanned on a LI-COR Odyssey with 169 μm resolution. Widths and lengths were measured with ImageJ and tumor volume was calculated as described above for subcutaneous tumors. The reported tumor volumes for each group are the average of ten mice. Before tumor induction, urine measurements were performed by injecting mice with 0.5 μM LyP1 ABNs. Approximately 200 μl of blood was collected and spiked with EDTA to a final concentration of 5 mM, and the blood cells were pelleted. Plasma was stored at −20° C. prior to HE4 quantification. HE4 levels were measured using the HE4 quantikine ELISA kit.

For “5-FAM-GGPLGVRGKK(CPQ2)-PEG2-C (5FAM-GGPLGVRGKK(CPQ2)[PEG2′]C) [MMP9 peptide substrate, MMP9 peptide substrate (PLGVRGK) flanked by a FRET pair, presented on nanoparticle surface at varying PEG tether lengths]”, the “cleavage velocity (V) by MMP9” value ([1]; longest presentation distance (tether length)) was 0.96 nM/s, the “cleavage velocity (V) by MMP9” value ([1]; shortest presentation distance (tether length)) was 0.24 nM/s and the “cleavage velocity (V) by thrombin” value ([2]; longest presentation distance) was 0.01 nM/s. The “cleavage velocity (V) by thrombin” value ([2]; shortest presentation distance) was 0.29 nM/s and the “cleavage by mouse MMP9” value [3] was “readily able to cleave”.

With “5-FAM-GGfPRSGGGK(CPQ2)-PEG2-C [thrombin-selective substrate]” the “optimal presentation length for thrombin cleavage” value ([2]; varying linker lengths on nanoparticle surface) was “optimally presented at an intermediate length”.

`CNC(=O)[C@@H](NC(=O)[C@H](CC(C)C)[C@H](O)C(=O)NO)C(C)(C)C` [marimistat] was tested, and the “inhibition of cleavage of MMP9 substrate by OVCAR-8 conditioned media” value [4] was “can be inhibited” and the “inhibition of cleavage of MMP9 substrate by OVCAR-8 conditioned media” value ([4]; listed as Marimistat) was “can inhibit a significant portion of the cleavage”.

B1: HE4: human epididymis protein, clinical blood biomarker used as comparator diagnostic, measured by ELISA (protein, UniProt Q14508 31-124, looked up)
WAP four-disulfide core …: EKTGVCPELQADQNCTQECVSDSECADNLKCCSAGCATFCSLPNDKEGSCPQVNINFPQLGLCRDQCQVDSQCPGQMKCCRNGCGKVSCVTPNF
With B1 the “limit of detection (tumor volume)” value ([5]; 3 weeks) was 88 mm^3, the ROC-AUC ([5]; three weeks) was 0.93 and the ROC-AUC ([5]; two weeks) was 0.51.
